Test results taken from patent publication US20240093191A1, “COMPOSITIONS AND METHODS FOR TREATING DISEASE ASSOCIATED WITH DUX4 OVEREXPRESSION” (RESEARCH INSTITUTE AT NATIONWIDE CHILDREN'S HOSPITAL, priority 2021, published 2024).
“And” between values parts separate entries of the source, which are not always exact repeats. Equal entries are not always repeated.

Legend:
Format in all cases: cell-based, human
DUX4 protein = assay: Western blot of V5-tagged DUX4 protein in co-transfected HEK293 cells; settings: HEK293; for Average inhibition efficiency (%) of DUX4 protein levels: CMV.DUX4-FL/CMV.eGFP, molar ratio 1 to 3, eGFP normalizer, relative to U6-milacZ, N = 3-8
Experimental: Western Blots. […] 50 mM Tris (pH 7.5-8.0), 150 mM NaCl, 0.1% (v/v) SDS, 0.5% (v/v) deoxycholate, 1% (v/v) triton X-100 (Fisher Scientific) and 1 tablet of protease inhibitor (ThermoFisher Scientific) per 10 mL of buffer. The total protein extract was quantified using the DC Protein Assay (Bio-Rad). Twenty microgram samples were separated on 12% SDS-PAGE, transferred to nitrocellulose membrane, using the wet transfer system, and incubated with the following antibodies: mouse monoclonal antibody to V5 (horseradish peroxidase [HRP]-coupled) [1:5,000 in 5% milk TBST buffer (150 mM NaCl, 50 mM Tris-HCl pH 7.4 and 0.1% Tween 20 (Fisher Scientific)), R961-25; Invitrogen); rabbit polyclonal eGFP antibody (1:50,000 in 3% BSA PBS, ab290; Abcam); mouse monoclonal β-actin antibodies (1:60,000; Sigma, St Louis, MO); overnight at 4° C. When using the eGFP antibody, membranes were blocked 30 mins with 3% BSA PBS prior to blotting. eGFP-probed blots were washed five times, 5 min each with 0.5% Tween 20 (Fisher Scientific) in TBST buffer, and then incubated with HRP-coupled goat anti-rabbit secondary antibody (1:250,000 in 3% BSA PBS, 115-035-144; Jackson ImmunoResearch) for 2 hours at room temperature. V5-probed blots were washed five times, 5 min each with 0.1% Tween 20 in TBST buffer. Following washes, blots were developed using Immobilon Western HRP substrate (Millipore) and exposed to film. DUX4.V5, and eGFP quantification was assessed using ImageJ.

[1] = system: DUX4 ORF (RenLuc-DUX4 ORF); assay: Dual-luciferase assay, RenLuc-DUX4 ORF reporter co-transfected with miDUX4 plasmids in HEK293 cells
Experimental: Dual Luciferase Assay. (See also FIGS. 1A, 3A-B, 4A-B, 5B, and 16B-C.) This assay was performed as previously described by Wallace et al. (Mol. Ther. Methods Clin. Dev. 8: 121-30 (2018)) and following the dual-luciferase reporter assay system (Promega) protocol with some modifications. All plasmid constructs had the psiCheck2 dual luciferase reporter plasmid (Promega) as backbone that contains separate Renilla and Firefly luciferase genes, where the former contains the various target sequences used in the experiments of the disclosure, and the latter serves as a transfection normalizer (control). All DUX4 and control sequences were cloned downstream of the Renilla luciferase stop codon, serving as a 3′UTR. HEK293 cells were pre-plated 24h before transfection. Cells were then co-transfected with the luciferase DUX4 reporter and individual microRNA expression plasmids in an increasing luciferase DUX4 reporter:miRNA molar ratio using Lipofectamine 2000 (Invitrogen). Luciferase activity was measured 24h or 48h after transfection. DUX4 gene silencing was determined as previously described [Wallace et al., Mol. Ther. Methods Clin. Dev. 8: 121-30 (2018)]. Triplicate data were averaged per experiment, and individual experiments were performed 3 times. Results were reported as the average ratio of Renilla to Firefly luciferase activity±SEM for all combined experiments.
Accordingly, two new mi405 constructs, i.e., mi405F and mi405NF, were designed. […] To assess the inhibition efficiency of the three mi405 constructs, a dual-luciferase assay and western blot analysis, similar to what was described for mir-675, were carried out. In the dual-luciferase assay, U6.mi405, U6.mi405F, or U6.mi405NF was co-transfected into HEK293 cells along with the RenLuc-DUX4 ORF (a construct expressing the open reading frame of DUX4 as a 3′UTR sequence of Renilla Luciferase). 24 h after transfection, U6.mi405, U6.mi405F, and U6.mi405NF reduced the relative Renilla luciferase activity by 85±1%, 89±1%, and 66±1% (P<0.0001, ANOVA, N=3), respectively, when tested against the RenLuc-DUX4 ORF construct.

mir-675-5p = assay: Small-transcript northern blot of mir-675 processing in HEK293 cells; settings: HEK293; anti-mir-675-5p biotinylated probe
Text: Small-Transcript Northern Blots. […] (SEQ ID NO: 148)).

B1: U6-mir-675-2.6: mir-675 construct with modified 5' and 3' flanking sequences (nucleic acid)
DNA: TCTAGAGATCCGACGCCGCCATCTCTAGGCCCGCGCCGGCCCCCTCGCACAGACTTGTGGGAGAAGCTCGGCTACTCCCCTGCCCCGGTTAATTTGCATATAATATTTCCTAGTAACTATAGAGGCTTAATGTGCGATAAAAGACAGATAATCTGTTCTTTTTAATACTAGCTACATTTTACATGATAGGCTTGGATTTCTATAAGAGATACAAATACTAAATTATTATTTTAAAAAACAGCACAAAAGGAAACTCACCCTAACTGTAAAGTAATTGTGTGTTTTGAGACTATAAATATCCCTTGGAGAAAAGCCTTGTTAACGCGCCCCAGGGTCTGGTGCGGAGAGGGCCCACAGTGGACTTGGTGACGCTGTATGCCCTCACCGCTCAGCCCCTGGGGTAACTCCTAATCACACTTTTTT
With B1 the “Average inhibition efficiency (%) of DUX4 protein levels” value (shortened to “Average inhibition efficiency (%)”) (DUX4 protein) was 63 ± 2 (N = 5) %.

B2: U6-mir-675-2.4: mir-675 construct with flanks as U6.mir-675-2.3, different promoter (nucleic acid)
DNA: GAACGCTGACGTCATCAACCCGCTCCAAGGAATCGCGGGCCCAGTGTCACTAGGCGGGAACACCCAGCGCGCGTGCGCCCTGGCAGGAAGATGGCTGTGAGGGACAGGGGAGTGGCGCCCTGCAATATTTGCATGTCGCTATGTGTTCTGGGAAATCACCATAAACGTGAAATGTCTTTGGATTTGGGAATCTTATAAGTTCTGTATGAGACCACTTGGATCCAATCACACTGCCCCAGGGTCTGGTGCGGAGAGGGCCCACAGTGGACTTGGTGACGCTGTATGCCCTCACCGCTCAGCCCCTGGGGATACTCCTAATCACACTTTTTT
B2 was tested, and the “Average inhibition efficiency (%)” value (DUX4 protein) was 63 ± 7 (N = 5) %.

B3: U6.mi405NF: mi405 with one G at 5' end and no 3' flanking sequence (nucleic acid)
DNA: ACGCCGCCATCTCTAGGCCCGCGCCGGCCCCCTCGCACAGACTTGTGGGAGAAGCTCGGCTACTCCCCTGCCCCGGTTAATTTGCATATAATATTTCCTAGTAACTATAGAGGCTTAATGTGCGATAAAAGACAGATAATCTGTTCTTTTTAATACTAGCTACATTTTACATGATAGGCTTGGATTTCTATAAGAGATACAAATACTAAATTATTATTTTAAAAAACAGCACAAAAGGAAACTCACCCTAACTGTAAAGTAATTGTGTGTTTTGAGACTATAAATATCCCTTGGAGAAAAGCCTTGTTTGCTCGAGTGAGCGATCCAGGATTCAGATCTGGTTTCTGTAAAGCCACAGATGGGAAACCAGATCTGAATCCTGGACTGCCTACTAGATTTTTT
With B3 the “reduction of relative Renilla luciferase activity” value ([1]; 1:4 DUX4:mi405 molar ratio, HEK293, 24 h, normalized to miGFP) was 66±1%, the “reduction of Renilla luciferase activity” value ([1]; DUX4:mi405 molar ratio 2 to 1, HEK293, 24 h, normalized to U6.miGFP) was 4±2% and 3.6±1.8% and the “relative Renilla luciferase activity reached” value ([1]; DUX4:miDUX4 molar ratio 1:1) was 88±3%. For the same molecule, the “increase in relative Renilla luciferase activity” value ([1]; switching from molar ratio 1:2 to 1:1 DUX4:miDUX4) was 73±7% and the “reduction of DUX4 protein levels” value (DUX4 protein; 1:4 DUX4:mi405 molar ratio, 24 h, normalized to miGFP, N=2) was 70±13%.

B4: U6.mir-675-2.2: mir-675 construct with flanks as U6.mir-675-2.1, different promoter (nucleic acid)
DNA: GAACGCTGACGTCATCAACCCGCTCCAAGGAATCGCGGGCCCAGTGTCACTAGGCGGGAACACCCAGCGCGCGTGCGCCCTGGCAGGAAGATGGCTGTGAGGGACAGGGGAGTGGCGCCCTGCAATATTTGCATGTCGCTATGTGTTCTGGGAAATCACCATAAACGTGAAATGTCTTTGGATTTGGGAATCTTATAAGTTCTGTATGAGACCACTTGGATCCCCCAGGGTCTGGTGCGGAGAGGGCCCACAGTGGACTTGGTGACGCTGTATGCCCTCACCGCTCAGCCCCTGGGGTAACTCCTAATCACACTTTTTT
With B4 the “Average inhibition efficiency (%)” value (DUX4 protein) was 58 ± 6 (N = 5) % and the “mature mir-675-5p bands on northern blot” value (mir-675-5p) was “detectable mir-675 mature sequences”.

B5: U6-milacZ: negative control miRNA expression plasmid (nucleic acid)
DNA: ACGCCGCCATCTCTAGGCCCGCGCCGGCCCCCTCGCACAGACTTGTGGGAGAAGCTCGGCTACTCCCCTGCCCCGGTTAATTTGCATATAATATTTCCTAGTAACTATAGAGGCTTAATGTGCGATAAAAGACAGATAATCTGTTCTTTTTAATACTAGCTACATTTTACATGATAGGCTTGGATTTCTATAAGAGATACAAATACTAAATTATTATTTTAAAAAACAGCACAAAAGGAAACTCACCCTAACTGTAAAGTAATTGTGTGTTTTGAGACTATAAATATCCCTTGGAGAAAAGCCTTGTTTGCGTTTAGTGAACCGTCAGATGGTACCGTTTAAACTCGAGTGAGCGACATGTTGCCACTCGCTTTAATCTGTAAAGCCACAGATGGGATTAAAGCGAGTGGCAACATGGCGCCTACTAGAGCGGCCGCCACAGCGGGGAGATCCAGACATGATAAGATACATTTTTT
For B5, the “Average inhibition efficiency (%)” value (DUX4 protein) was 0 ± 2 (N = 8) %.
